Test results: the Immune Epitope Database (IEDB)
pKd: −log10 of the molar value.

How the values were obtained:
[1] = molecular target: HLA-A*02:11; assay: IEDB peptide-MHC binding, purified MHC/direct/fluorescence; filed as Kd, often an IC50 or EC50 that approximates it; ≥ and ≤ were set here for values at or beyond the usual limits of such assays; details: source organism: Choclo virus
[2] = molecular target: HLA-A*02:12; assay: as above
[3] = molecular target: HLA-A*02:16; assay: as above
[4] = molecular target: HLA-A*02:03; assay: as above; details: source organism: Choclo virus
[5] = molecular target: HLA-A*03:01; assay: as above
[6] = molecular target: HLA-A*02:19; assay: as above
[7] = molecular target: HLA-B*51:01; assay: IEDB peptide-MHC binding, purified MHC/competitive/fluorescence; filed as Kd, often an IC50 or EC50 that approximates it; ≥ and ≤ were set here for values at or beyond the usual limits of such assays; details: source organism: Araucaria virus
[8] = molecular target: HLA-B*15:01; assay: as above; details: source organism: Araucaria virus
[9] = molecular target: HLA-A*02:01; assay: as above
[10] = molecular target: HLA-B*39:01; assay: as above; details: source organism: Araucaria virus
[11] = molecular target: HLA-B*18:01; assay: as above; details: source organism: Araucaria virus
[12] = molecular target: HLA-B*08:01; assay: as above; details: source organism: Araucaria virus
[13] = molecular target: HLA-B*46:01; assay: as above; details: source organism: Araucaria virus
[14] = molecular target: HLA-A*69:01; assay: as above
[15] = molecular target: HLA-B*27:03; assay: as above; details: source organism: Araucaria virus
[16] = molecular target: HLA-B*57:01; assay: as above; details: source organism: Araucaria virus
[17] = molecular target: HLA-A*26:01; assay: as above; details: source organism: Araucaria virus
[18] = molecular target: HLA-B*15:01; assay: IEDB peptide-MHC binding, purified MHC/direct/fluorescence; filed as Kd, often an IC50 or EC50 that approximates it; ≥ and ≤ were set here for values at or beyond the usual limits of such assays
[19] = molecular target: HLA-B*39:01; assay: as above
[20] = molecular target: HLA-B*18:01; assay: as above
[21] = molecular target: HLA-B*46:01; assay: as above
[22] = molecular target: HLA-B*27:03; assay: as above
[23] = molecular target: HLA-B*57:01; assay: as above
[24] = molecular target: HLA-B*15:17; assay: as above
[25] = molecular target: HLA-A*26:01; assay: as above
[26] = molecular target: HLA-B*48:01; assay: as above
[27] = molecular target: HLA-B*58:01; assay: as above
[28] = molecular target: HLA-A*31:01; assay: as above
[29] = molecular target: HLA-A*11:01; assay: as above
[30] = molecular target: HLA-B*40:01; assay: as above
[31] = molecular target: HLA-B*27:05; assay: as above
[32] = molecular target: HLA-A*01:01; assay: as above
[33] = molecular target: HLA-B*08:02; assay: as above
[34] = molecular target: HLA-A*02:06; assay: IEDB peptide-MHC binding, purified MHC/competitive/fluorescence; filed as Kd, often an IC50 or EC50 that approximates it; ≥ and ≤ were set here for values at or beyond the usual limits of such assays
[35] = molecular target: HLA-B*51:01; assay: IEDB peptide-MHC binding, purified MHC/direct/fluorescence; filed as Kd, often an IC50 or EC50 that approximates it; ≥ and ≤ were set here for values at or beyond the usual limits of such assays; details: source organism: Encephalitozoon cuniculi GB-M1
[36] = molecular target: HLA-A*24:03; assay: as above; details: source organism: Encephalitozoon cuniculi GB-M1
[37] = molecular target: HLA-A*02:11; assay: IEDB peptide-MHC binding, purified MHC/competitive/fluorescence; filed as Kd, often an IC50 or EC50 that approximates it; ≥ and ≤ were set here for values at or beyond the usual limits of such assays; details: source organism: Desulfatibacillum alkenivorans AK-01
[38] = molecular target: HLA-A*02:12; assay: as above; details: source organism: Desulfatibacillum alkenivorans AK-01
[39] = molecular target: HLA-A*02:16; assay: as above; details: source organism: Desulfatibacillum alkenivorans AK-01
[40] = molecular target: HLA-A*02:03; assay: as above; details: source organism: Desulfatibacillum alkenivorans AK-01
[41] = molecular target: HLA-A*02:19; assay: as above; details: source organism: Desulfatibacillum alkenivorans AK-01
[42] = molecular target: HLA-A*69:01; assay: IEDB peptide-MHC binding, purified MHC/direct/fluorescence; filed as Kd, often an IC50 or EC50 that approximates it; ≥ and ≤ were set here for values at or beyond the usual limits of such assays; details: source organism: Burkholderia mallei
[43] = source organism: Araucaria virus
[44] = source organism: Mycobacterium tuberculosis
[45] = source organism: Vaccinia virus Copenhagen
[46] = source organism: Encephalitozoon cuniculi GB-M1
[47] = source organism: Desulfatibacillum alkenivorans AK-01
[48] = source organism: Burkholderia mallei
[49] = source organism: Burkholderia mallei ATCC 23344
[50] = source organism: Burkholderia mallei NCTC 10229

Q: What does the source list for ELRQLAQSL?
A: pKd [1]: ≤ 4.70; pKd ([2]; source organism: Choclo virus): ≤ 4.70; pKd ([3]; source organism: Choclo virus): ≤ 4.70; pKd [4]: ≤ 4.70; pKd ([5]; source organism: Choclo virus): ≤ 4.70; pKd ([6]; source organism: Choclo virus): ≤ 4.70; pKd [7]: ≤ 4.70; pKd [8]: ≤ 4.70; pKd [9, 43]: ≤ 4.70; pKd [10]: ≤ 4.70; pKd [11]: ≤ 4.70; pKd [12]: 6.81; pKd [13]: ≤ 4.70; pKd [14, 43]: ≤ 4.70; pKd [15]: ≤ 4.70; pKd [16]: ≤ 4.70; pKd [17]: ≤ 4.70

Q: How did the pKd [2, 44] turn out when SIYYTLVRM was run?
A: Its pKd is ≤ 4.70.

Q: And the pKd [18, 44]?
A: The pKd was ≤ 4.70.

Q: And the pKd [19, 44]?
A: The pKd was ≤ 4.70.

Q: What about the pKd [20, 44] of the same sequence?
A: The pKd was ≤ 4.70.

Q: And the pKd [21, 44]?
A: Its pKd is ≤ 4.70.

Q: What about the pKd [6, 44] of the same sequence?
A: Its pKd is ≤ 4.70.

Q: What about the pKd [22, 44] of the same sequence?
A: Its pKd is ≤ 4.70.

Q: What about the pKd [23, 44] of the same sequence?
A: The pKd was ≤ 4.70.

Q: What about the pKd [24, 44] of the same sequence?
A: The pKd was 6.59.

Q: What about the pKd [25, 44] of the same sequence?
A: The pKd was ≤ 4.70.

Q: How did the pKd ([26]; source organism: Cowpox virus) turn out when YKDANISMY was run?
A: The pKd was ≤ 4.70.

Q: And the pKd ([27]; source organism: Cowpox virus)?
A: Its pKd is ≤ 4.70.

Q: And the pKd ([28]; source organism: Cowpox virus)?
A: The pKd was ≤ 4.70.

Q: What about the pKd ([29]; source organism: Cowpox virus) of the same sequence?
A: Its pKd is ≤ 4.70.

Q: What about the pKd ([18]; source organism: Cowpox virus) of the same sequence?
A: The pKd was ≤ 4.70.

Q: And the pKd ([30]; source organism: Cowpox virus)?
A: The pKd was ≤ 4.70.

Q: And the pKd ([5]; source organism: Cowpox virus)?
A: Its pKd is ≤ 4.70.

Q: And the pKd ([21]; source organism: Cowpox virus)?
A: The pKd was ≤ 4.70.

Q: What about the pKd ([31]; source organism: Cowpox virus) of the same sequence?
A: Its pKd is ≤ 4.70.

Q: And the pKd ([32]; source organism: Cowpox virus)?
A: The pKd was ≤ 4.70.

Q: And the pKd ([23]; source organism: Cowpox virus)?
A: The pKd was ≤ 4.70.

Q: And the pKd ([24]; source organism: Cowpox virus)?
A: The pKd was ≤ 4.70.

Q: What about the pKd ([25]; source organism: Variola virus) of the same sequence?
A: Its pKd is ≤ 4.70.

Q: What about the pKd ([33]; source organism: Variola virus) of the same sequence?
A: The pKd was ≤ 4.70.

Q: And the pKd [9, 45]?
A: The pKd was 6.95.

Q: What about the pKd [14, 45] of the same sequence?
A: The pKd was 5.98.

Q: And the pKd [34, 45]?
A: The pKd was 6.97.

Q: How did the pKd [35] turn out when HPYVFCALL was run?
A: Its pKd is 5.53.

Q: And the pKd [2, 46]?
A: Its pKd is ≤ 4.70.

Q: What about the pKd [18, 46] of the same sequence?
A: Its pKd is ≤ 4.70.

Q: And the pKd [3, 46]?
A: Its pKd is ≤ 4.70.

Q: What about the pKd [36] of the same sequence?
A: The pKd was ≤ 4.70.

Q: And the pKd [5, 46]?
A: The pKd was ≤ 4.70.

Q: What about the pKd [20, 46] of the same sequence?
A: Its pKd is ≤ 4.70.

Q: What about the pKd [21, 46] of the same sequence?
A: The pKd was ≤ 4.70.

Q: What about the pKd [6, 46] of the same sequence?
A: Its pKd is ≤ 4.70.

Q: And the pKd [22, 46]?
A: The pKd was ≤ 4.70.

Q: And the pKd [23, 46]?
A: The pKd was ≤ 4.70.

Q: What about the pKd [25, 46] of the same sequence?
A: Its pKd is ≤ 4.70.

Q: How did the pKd [37] turn out when KLGKAGYVV was run?
A: The pKd was 8.89.

Q: What about the pKd [38] of the same sequence?
A: The pKd was 7.63.

Q: And the pKd [39]?
A: The pKd was 8.75.

Q: What about the pKd [9, 47] of the same sequence?
A: The pKd was 6.42.

Q: What about the pKd [40] of the same sequence?
A: The pKd was 8.64.

Q: What about the pKd [41] of the same sequence?
A: The pKd was 6.93.

Q: And the pKd [14, 47]?
A: The pKd was ≤ 4.70.

Q: And the pKd [34, 47]?
A: The pKd was 8.72.

Q: Which results are given for IYDFYNAEY?
A: pKd [26, 48]: ≤ 4.70; pKd [27, 48]: ≤ 4.70; pKd [28, 48]: ≤ 4.70; pKd [29, 48]: ≤ 4.70; pKd [18, 48]: ≤ 4.70; pKd [30, 48]: ≤ 4.70; pKd [19, 49]: ≤ 4.70; pKd [5, 48]: ≤ 4.70; pKd [42]: ≤ 4.70; pKd [31, 48]: ≤ 4.70; pKd [32, 48]: 5.75; pKd [23, 48]: ≤ 4.70; pKd [24, 48]: 5.29; pKd [25, 49]: 7.04; pKd [33, 49]: ≤ 4.70; pKd [9, 50]: 6.86; pKd [34, 50]: 7.27
